The series is described as follows: yeast display, Sf9 membrane polyspecificity reagent, FACS + sequencing; frameworks hold sequencing errors. An outline of the steps:
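In a synthetic yeast display library (Saccharomyces cerevisiae BJ5465), nanobody expression was induced with galactose for 36–48 hours. FACS gates were set low and high (top ~1%) using anti-HA fluorescence for expression and streptavidin fluorescence for binding of the Sf9 membrane reagent. Each polyreactivity label is drawn from the gate of origin.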
Turning to “QVQLVESGGGLVQAGGSLRLSCAASGSTVWWYAMGWDRQAPRKERELVAVITRSSDSTSYADSVKGRFTLSRDNAKNTVFLQMNSLKPEDTAVYYCAALYRSYRYEYYYWGQATQVTVSS”, the “polyreactivity (PSR sort gate)” value is recorded as “high polyreactivity”.

Consider “QVQLVESGGGLVQAGGSLRLSCAASGSTVYAYAMGWYRQAPGKERELVAAIDSGGSTYYADSVKGRFTISRDNAKNTVNLQMNSLKPEDTAVYYCAVRHRYTRAYWGRDYWGQGTQVTVSS”, for which the “polyreactivity (PSR sort gate)” value was “low polyreactivity”.

With “QVQLVESGGGLVQAGGSLRLSCAASGSTYDPNAMGRYRQAPGKERELVAAISWSGGSTYYADSVKGRFTISRDNAKNTVYLQMYSLKPEDTAVSYCNAQFYDSYSYTNDYWGQGTLVTVSS”, the “polyreactivity (PSR sort gate)” value was “low polyreactivity”.

Regarding “QVQLVESGGGLVQAGGSLRLSCAASGSTYEYNAMGWSRQAPGKERELVASSTNYADSVKGRFTISRDNAKNTVYLQMNSLKPEDTAVYYCAREQCVNRNHDYWGQGTQVTVSS”, the “polyreactivity (PSR sort gate)” value was “low polyreactivity”.

Turning to “QVQLVESGGGLVQAGGSLRLSCAASGSTYEYNAMGWYRQAPGKERELVAGISSGGSTYYADSVKGRFTISRDNAKNTVYLQMNSLKPEDTAVYYCATSEASVATWDRYTELDYWGQGSQVTVSS”, the “polyreactivity (PSR sort gate)” value is given as “low polyreactivity”.

As to “QVQLVESGGGLVQAGGSLRLSCAASGSTYGDNAMGWYRQAPGKERELVAAISSGGGSTYYADSVKGRFTISRDNAKNTVYLQMYSLNPEDTAVYYCGADGTLTLYRYILDYWGQGYQVTVSS”, the “polyreactivity (PSR sort gate)” value is reported as “low polyreactivity”.

On to “QVQLVESGGGLVQAGGSLRLSCAASGSTYGGNAMGWYRQAPGKERELVAAISRSGSRTYYADSVKGRFTISRDNAKNTVYLQMNSLKPEDTAVYYCAARRWVWTVRYNYWGQGTQVTVSS”, for which the “polyreactivity (PSR sort gate)” value is “high polyreactivity”.

“QVQLVESGGGLVQAGGSLRLSCAASGSTYGRNAMGWYRQATGKERELVAAINSGGGTYYADSVKGRFTISRDNAKNTVYLQMYSLKPEDTAVYYCAAARRYGKYDYWGQGTQVTVSS”: the “polyreactivity (PSR sort gate)” value is given as “low polyreactivity”.

For the sequence “QVQLVESGGGLVQAGGSLRLSCAASGSTYGWNAMGWSRQAPGKERELVAAISSSGGITYYADSVKGRFTISRDNAKNTVYLQMNSLKPEDTAVYYCAAERDVDWVNYWGQGTQVTVSS”, the “polyreactivity (PSR sort gate)” value is reported as “low polyreactivity”.

Take “QVQLVESGGGLVQAGGSLRLSCAASGSTYGYAMGWYRQAPGKEMKLVARITWRGGSTSYADSVKGRFTITRDNAKNTVYLQMNSLKPEDTAVYYCADGFYFQVYTYVRKRYYYWGQGTQVTVSS”: the “polyreactivity (PSR sort gate)” value was “high polyreactivity”.

Consider “QVQLVESGGGLVQAGGSLRLSCAASGSTYGYYTMGWYRQAPGKERELVAAITWSGGSTYYADSVKGRFTISRDIAKNTVYLQMNSLKPEDTAVYYCAADDYWTPFGYWGQCTQVTVSS”, for which the “polyreactivity (PSR sort gate)” value is on record as “low polyreactivity”.

For the sequence “QVQLVESGGGLVQAGGSLRLSCAASGSTYRANAMGWYRQAPVKERELFASITNSGSSTYYADSVKGRFTISRDNAKNTVYLQMNSLKPEDTAVYYCNAERTIAGYYYWGQGTQVTVSS”, the “polyreactivity (PSR sort gate)” value is “low polyreactivity”.

Turning to “QVQLVESGGGLVQAGGSLRLSCAASGSTYRGYAMGWYRQAPGKERELVAAISWSGAATYYADSVKGRFTISRDNAKNTVYLQMNSLKPEDTAVYYCAKVARQNWFRYNYDYWGQGTQVTVSS”, the “polyreactivity (PSR sort gate)” value was “high polyreactivity”.

Consider “QVQLVESGGGLVQAGGSLRLSCAASGSTYRWYAMGWYRQAPGKEREFVAAITWSGGRTYYADSVKGRFTISRDNAKNTVYLQMNSLKTEDTAVYYCNADDYGYSFNYWGQGTQVTVSS”, for which the “polyreactivity (PSR sort gate)” value is given as “high polyreactivity”.

Consider “QVQLVESGGGLVQAGGSLRLSCAASGSTYRYNAMGWYRQAPGKERELVAAITSGGRTNYADSVKGRFTISRDNAKITVYLQMNSLKPEDTAVYYCAARRYGRNWHYDYWGQGTQVTVSS”, for which the “polyreactivity (PSR sort gate)” value is on record as “high polyreactivity”.

Take “QVQLVESGGGLVQAGGSLRLSCAASGSTYSWYAMGWYRQAPGKERELVASISWRGGSTYYADSVKGRFTISRDNAKNTVYLQMNSLKPEDTAVYYCAADYYWKLFHEPPAVYDYDYWGQCTQVTVSS”: the “polyreactivity (PSR sort gate)” value is reported as “low polyreactivity”.

Take “QVQLVESGGGLVQAGGSLRLSCAASGSTYTGYTMGWYRQAPGKERELVAAITYRGGSTYYADSVKGRFTISRDNAKNTVYLQMNSQKPEDTPVFYCAAVPEYYEYSPYDYWGQGTQVTVSS”: the “polyreactivity (PSR sort gate)” value is listed as “low polyreactivity”.

In the case of “QVQLVESGGGLVQAGGSLRLSCAASGSTYTLNAMGWYRQAPGKERELVADITSGGGGTYYADSVKGRFTISRDNAKNTVYLQMNSLKPEDTAVYYCAADDFHSLLGYWYGLFDYWGQGTQVTVSS”, the “polyreactivity (PSR sort gate)” value is “low polyreactivity”.

“QVQLVESGGGLVQAGGSLRLSCAASGSTYTRYAMGWYRQATGKDRELVAAISRSGGSTYYADSVKGRFTISRDNAKNTVYLQMNSLKPEDTAVYYCRKFTLTTVTNYWGQGTQVTVSS”: the “polyreactivity (PSR sort gate)” value is listed as “high polyreactivity”.

Take “QVQLVESGGGLVQAGGSLRLSCAASGSTYVYAMGLYRQAPGKERELVASISWSDSSTYYADSVKGRFTISRDNAKNTVYLQMNSLKPEDTAVYYCNADQGTRDSDYWGQGTQVTVSS”: the “polyreactivity (PSR sort gate)” value is reported as “low polyreactivity”.

Consider “QVQLVESGGGLVQAGGSLRLSCAASGSTYYPNAMGWYRQAPGKERELVAAISRGTRTKYADSVKGRFTISRDNAKNTVYLQMNSLKPEDTAVYYCAVLTYRGRFEYWGQGTQVTVSS”, for which the “polyreactivity (PSR sort gate)” value is on record as “high polyreactivity”.

As for “QVQLVESGGGLVQAGGSLRLSCAASGSTYYYAMGWYRQAPGKEREFVAAISRDGSSTYYADSVKGRFTISRDNAKYTVYLQMNSLKPEDTAVYYCAASIIRFSTSADKLVTSRYYYWGQGTQVTVSS”, the “polyreactivity (PSR sort gate)” value was “high polyreactivity”.

As for “QVQLVESGGGLVQAGGSLRLSCAASGTFAFYTMGWYRQAPGKERELVAAISWDGGDTYYADSVKGRFTISRDNAKNNVYLQMNSLKPEDTAVYYCAAELGYYVYGSYYSYDYCGQGTQVTVSS”, the “polyreactivity (PSR sort gate)” value is listed as “high polyreactivity”.

“QVQLVESGGGLVQAGGSLRLSCAASGTFAGNAMGWYRQAPGKERELVAAITTGGRTYYADSVKGRFTISRDNAKNTVYLQMNSLKPEDTAVYYCAADRIRDLEFDYWGQGTQVTVSS”: the “polyreactivity (PSR sort gate)” value was “low polyreactivity”.

For the sequence “QVQLVESGGGLVQAGGSLRLSCAASGTFARYAMGWYRQAPGKERELVAAITRRGGNTYYADSVKGRFTISRDNAKNTVYLQMNSLKPEDTAVYYCARDYYYNYWWMDYWGQGTQVTVSS”, the “polyreactivity (PSR sort gate)” value is “high polyreactivity”.

For the sequence “QVQLVESGGGLVQAGGSLRLSCAASGTFPVYTMGWYRQAPGKERELVAAISRNGGSTYYADSVKGRFTISRDNAKNTVYLQMNSLKPEDTAVYYCAAVKVKRPGMDYWGQGTQVTVSS”, the “polyreactivity (PSR sort gate)” value was “high polyreactivity”.

In the case of “QVQLVESGGGLVQAGGSLRLSCAASGTFSFYAMGWYRQAPGKERELVAAITRSSSRTYYADSVKGRFTISRDNAKNTVYLQMNSLKPEDTAVYYCRAKQVNRFDYWGQGTQVTVSS”, the “polyreactivity (PSR sort gate)” value is listed as “high polyreactivity”.

For the sequence “QVQLVESGGGLVQAGGSLRLSCAASGTFSPYAMGWYRQAPGKESELVAVITSNTGRTYADSVKGRFTISRDNAKKTVYLQMNSLKPEDTAVYYCAARSTYRHWYRTGSRFDYWGQGTQVTVSS”, the “polyreactivity (PSR sort gate)” value was “low polyreactivity”.

Regarding “QVQLVESGGGLVQAGGSLRLSCAASGTFSSNAMGWYRQAPGKERELVAAISSTGTTTYYADSVKGRFTISRDNAKNTVYLQMNSLKPEDTAVYYCAKYAYTSVHSWYYYWGQGTQVTVSS”, the “polyreactivity (PSR sort gate)” value is reported as “high polyreactivity”.

In the case of “QVQLVESGGGLVQAGGSLRLSCAASGTFSYYAMGWYRQAPGKERELVATISWSGDSTYYADSVKGRFTISRDNAKNTVYLQMNSLNPEDTAVYYCNADHFQWGAGYDYWGQGTQVTVSS”, the “polyreactivity (PSR sort gate)” value is listed as “low polyreactivity”.

As to “QVQLVESGGGLVQAGGSLRLSCAASGTFVYYAMGWYRQAPGKERELVAVISLNGGITYYADSVKGRFTISRDNAKNTVYLQMNSLKPEDTAVYYCNAQFYNSGWSFKSYYWGHGTQVTVSS”, the “polyreactivity (PSR sort gate)” value was “low polyreactivity”.

With “QVQLVESGGGLVQAGGSLRLSCAASGTFYLYAIGWYRQAPGNERELVAALTRGGSTNYADSVKGRFTISRDNAKNTVDLQMNSLKPEDTAVYYCAAGSSRVFRKAGITRPSGLYYYWGQGTQVTVSS”, the “polyreactivity (PSR sort gate)” value is reported as “high polyreactivity”.

Regarding “QVQLVESGGGLVQAGGSLRLSCAASGTFYLYAMGWYRQAPGKERELVAAISGSGSTNYADSVKGRFTISRDNAKNTVYLQMNSLKPEDTAVYYCAAYQRYDSVTGARYEYDYWGQGTQVTVSS”, the “polyreactivity (PSR sort gate)” value is listed as “low polyreactivity”.

Consider “QVQLVESGGGLVQAGGSLRLSCAASGTFYLYAMGWYRQAPGKERELVARINSSGSTNLRRLCEGALHNFTRQCEEYRLFTDEQPETGRYRVYYCNADTKRSSREYDYWGQGTQVTVSS”, for which the “polyreactivity (PSR sort gate)” value is “low polyreactivity”.

Take “QVQLVESGGGLVQAGGSLRLSCAASGTICYPYAMGWYRQAPGKERELVASISWSGGSTRYADSVKGRFTISRDNAKNTVYLQMNSLKPEDTAVYYCAARYILSKYGSGVRYNYWGQGTQVTVSS”: the “polyreactivity (PSR sort gate)” value is “high polyreactivity”.

With “QVQLVESGGGLVQAGGSLRLSCAASGTIFQSNAMGWYRQAPGKERELVAAISSSGGRTYYADSVKGRFTISRDNAKNTVYLQMNSLKPEDTAVYYCADLGYPDGGWGQGTQVTVSS”, the “polyreactivity (PSR sort gate)” value is “low polyreactivity”.

As to “QVQLVESGGGLVQAGGSLRLSCAASGTIYYNTMGWYRQAPGKERELVASISRTGSTKYADSVKGRFTISRDNAKNTVYLQMNSLKPEDTAVYYCAADYLAFREGAVWLYDYWGQGTQVTVSS”, the “polyreactivity (PSR sort gate)” value was “high polyreactivity”.

Regarding “QVQLVESGGGLVQAGGSLRLSCAASGTMGSYRQAPGKERELVAAISQSGGSTYYADSVKGRFTISRDNAKNTVYLQMNSLKPEDTAVYYCAVDPRYGHPRRDYWGQGTQVTVSS”, the “polyreactivity (PSR sort gate)” value is “low polyreactivity”.

With “QVQLVESGGGLVQAGGSLRLSCAASGTMPGYAMGWYRQAPGKERELVAAITWSDDSTFYADSVKGRFTISRDNAKNTVYLQMNSLKPEDTAVYYCAAEYVVSTQEFDYCGQGTQVTVSS”, the “polyreactivity (PSR sort gate)” value was “low polyreactivity”.

On to “QVQLVESGGGLVQAGGSLRLSCAASGTNFRYYTMGWYRQAPGKERELVAAITYSGGTTYYADSVKGRFTISRDNAKNTVYLQMNSLKPEDTAVYYCAATFQANYFSGYYTVYLSDYWGQGTQVTVSS”, for which the “polyreactivity (PSR sort gate)” value was “low polyreactivity”.

For “QVQLVESGGGLVQAGGSLRLSCAASGTTFARNAMGWYRQAPGKERELVAVISYSGGSSYADSVKGRFTISRDNAKNTVYFHMKSLKPEVTAVYYCAARAWYPSRYDFWGQGTQVIVSS”, the “polyreactivity (PSR sort gate)” value is recorded as “high polyreactivity”.

The values above are taken from the nanobody polyreactivity screen of Harvey et al. (2022).
